Our source for the amyloid nucleation score values is the supplement of paper PMC12042874.

± gives the uncertainty stated by the source.

This data set in a line: amyloid nucleation score (Sup35N fusion, yeast selection) (log enrichment); library NNK3; higher = more nucleation; inactive = no reads after selection. The method in brief:
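Output and input plasmid inserts were sequenced by Illumina after psi-negative yeast carrying Sup35N fused to peptides of 20 random codons had been induced 24 hours with 100 μM copper sulfate and grown 7 days at 30°C on medium lacking adenine and uracil. The nucleation score is the DiMSum log enrichment of output over input reads, centred on the mode score of non-aggregating sequences. Sequences with under 100 input reads were excluded.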

In turn, HFIASRGSGNLKVAFTDSQT had an amyloid nucleation score of 1.23 ± 0.1.
For the substance RKAYATYATDRLISSDYG, the amyloid nucleation score entry was “inactive”.
As to LFVIYISDIAPTGYQVQNDI, the amyloid nucleation score result is “inactive”.
Next, AYFIPYNTWFYKKGMARQFF: “inactive”; LPSVDVRKTI: “inactive”.
In turn, RGLRTKVGMSVRNCEYRYVM gave an amyloid nucleation score of -0.455 ± 1.1.
Then MVVTKLRRDVISQSRISMGW, with 1.07 ± 0.1.
Then FSYCDGRLLSSNRYYSESLY, with “inactive”; and DILTMCEYDSDNNVGNLCYS, with “inactive”.
Next, CGWMTHSEL: “inactive”.
Turning to SQPDCFNICDLHGRSSCVSK, the amyloid nucleation score entry is “inactive”.
Next, CLCWKAVLDRELFKSGFTAA: “inactive”; DLIQLDALWDVRTHWTWGTP: “inactive”.
Next, ICAMAYADRTFSTSKGSK: “inactive”; HPYSNVWMSL: “inactive”.
As for CWFNPDPGLKWF, the amyloid nucleation score entry was “inactive”.
Then STMHELYV, with “inactive”; and VNDSAGVKLAVDCERTRKGG, with -0.5 ± 0.98.
MMSDLILV displayed an amyloid nucleation score of -0.43 ± 1.
As for CIWLTVIFSWRYEVG, the amyloid nucleation score entry was “inactive”.
In the case of CIRIYATFFKLRQSYNGTNG, the amyloid nucleation score was determined as 1.03 ± 0.14.
Then LCVRYDMSEGLRKGWWYGVG, with “inactive”; and SILLIFCLSKTRFSVMSFLP, with “inactive”.
Then IRLKQQDFEGSGKLFNGGHL, with “inactive”; and SNSSYWRICRLETCNPVGYK, with “inactive”; and RLRRSGVKWVVLKGGTRTWQ, with “inactive”.
For CFVGHADLKFMGFHWMVGEC, the amyloid nucleation score entry is “inactive”.
As for MGSSFGGVLVSISVSWGCGF, the amyloid nucleation score is -0.012 ± 0.51.
As to KDADMDLLSRYATRCGVSRL, the amyloid nucleation score result was “inactive”.
Take LWVRKDERGEYI: the amyloid nucleation score result is “inactive”.
Then SSLCYTHRACTCNFTKVDSF, with “inactive”; and LRHGSSEFNYGNFFLCLFEQ, with 2.56 ± 0.075.
For the substance TRYLSSFISYGEDSMHVFCG, the amyloid nucleation score entry was “inactive”.
WILSNRWKFHLVGLVIAFV: the amyloid nucleation score entry was “inactive”.
Next, SDFEAFSFGDNMVFLIEMEG: “inactive”.
Take FKDMFPNLSTCLLIVRM: the amyloid nucleation score entry was “inactive”.
Next, WYDGQRFCRELYNCPSAPGL: “inactive”; ESSLWYI: “inactive”.
As for HSAYVVKWSSRTTPKFFSLW, the amyloid nucleation score entry is “inactive”.
Then LYSIWGRNRGHGMIGWDPLT, with “inactive”; and RLSEFGVNVAQMWATVVTSL, with “inactive”.
For HKASKLVYLQWCRHECWSLV, the amyloid nucleation score result is “inactive”.
For SERYEEMTFSDGYMFSRDDL, the amyloid nucleation score result is “inactive”.
Take TCYITA: the amyloid nucleation score entry was “inactive”.
As to VGDLLCPIASLGSRRNLWCR, the amyloid nucleation score entry was “inactive”.
Turning to YCETLTRY, the amyloid nucleation score result was “inactive”.
In the case of SKFFQQPWL, the amyloid nucleation score result is “inactive”.
For KGWLSSWVA, the amyloid nucleation score entry is “inactive”.
As to TLNLVSSTICLFR, the amyloid nucleation score result is “inactive”.
Next, EGGMTTFYFC: 2.13 ± 0.093.
CNVRFCIDFMIFMVISDSKD: the amyloid nucleation score stood at 1.11 ± 0.14.
Then TATYKSYCTL, with “inactive”.
With LPAHTL, the amyloid nucleation score result was “inactive”.
